Holding throughout (assay): co-sedimentation
In experiment [1] the target is T1, filamentous actin (F-actin), chicken skeletal muscle (chicken, UniProt P68139 1-377).
The target of experiment [2] is T1, filamentous actin (F-actin), chicken …. This is another data set of the same source.
For experiment [3] the target is unchanged. This is another data set of the same source.

Where two headings read alike, the source gives them in different places.

This note sets out measurements from paper PMC3556572 (Biochemistry, 2012).

B1: Abl2/Arg (Abelson-related gene) nonreceptor tyrosine kinase (enzyme)
chain: MGQQVGRVGEAPGLQQPQPRGIRGSSAARPSGRRRDPAGRTADAGFNVFTQHDHFASCVEDGFEGDKTGGSSPEVLHRPFGCDAESQALNEAIRWSSKENLLGATESDPNLFVALYDFVASGDNTLSITKGEKLRVLGYNQNGEWSEVRSKNGQGWVPSNYITPVNSLEKHSWYHGPVSRSAAEYLLSSLINGSFLVRESESSPGQLSISLRYEGRVYHYRINTTTDSKVYVTAESRFSTLAELVHHHSTVADGLVTTLHYPAPKCNKPTVYGVSPIHDKWEMERTDITMKHKLGGGQYGEVYVGVWKKYSLTVAVKTFKEDTMEVEEFLKEAAVMKEIKHPNLVQLLGVCTLEPPFYIVTEYMPYGNLLDYLRECSREEVTAVVLLYMATQISSAMEYLEKKNFIHRDLAARNCLVGENHVVKVADFGLSRLMTGDTYTAHAGAKFPIKWTAPESLAYNTFSIKSDVWAFGVLLWEIATYGMSPYPGIDLSQVYDLLEKGYRMEQPEGCPPKVYELMRACWKWSPADRPSFAETHQAFETMFHDSSISEEVAEELGRTASSSSVVPYLPRLPLLPSKTRTLRKQGENKENLDGGLDAAESLASSSAPAGFIRSTQASSGSPALPRKQRDKSPSSLLEDAKETCFTRDRKGGFFSSFMKKRNAPTPPKRSSSFREMENQPHKKYELTGNFSPVASLQNADGFSVAPSQQEPNLVPAKCYGGSFAQRNLCADDDSGGGGGSGTAGGGWSGITGFFTPRLIKKTLGLRAGKPTASDDTSKPFPRSNSTSSMSSGLPEQDRMAMTLPRNCQRSKLQLERTVSTSSQPEENVDRANDMLPKKSEEGAAPARERPKAKLLPRGATALPLRAPDPAITESDSPGVGVAGVAAAPKGKERNGGTRLGVAGVPEDGEQLGWSSPAKAVAVLPTTHNHKVPVLISPTLKHTPADVQLIGTDSQGNKFKLLSEHQVTSSGDKDRPRRVKPKCAPPPPPVMRLLQHPSTCSDPEEEPTAPPAGQHTPETQEGGKKAAPGPVPSSGKPGRPVMPPPQVPLPTSSISPAKMANGTAGTKVALRKTKQAAEKISADKISKEALLECADLLSSAITEPVPNSQLVDTGHQLLDYCSGYVDSIPQTRNKFAFREAVSKLELSLQELQVSSTAAGVPGTNPVLNNLLSCVQEISDVVQR
As for B1, in experiment [1], the “stoichiometry N” value was 0.5 Arg per actin monomer.

B2: cortactin (natural protein)
chain: not shown
modifications: exhibits tyrosine phosphorylation as purified from insect cells (anti-phosphotyrosine blot); sites not mapped here
As to B2, the “stoichiometry N” value in experiment [2] was 0.25 cortactin per actin monomer.

B3: cortactin 3YF (natural protein)
chain: not shown
For the molecule B3, the “fold decrease in affinity for F-actin in the presence of saturating Arg” value in experiment [3] was about 3 fold. Also, the “stoichiometry N” value was 0.5 cortactin per actin monomer in experiment [3] and 0.25 cortactin per actin monomer in experiment [2].

B4: cortactin W525A (natural protein)
chain: not shown
modifications: exhibits tyrosine phosphorylation as purified from insect cells (anti-phosphotyrosine blot); sites not mapped here
B4: the “stoichiometry N” value in experiment [3] was 0.5 cortactin per actin monomer; in experiment [2], 0.25 cortactin per actin monomer.

B5: cortactin W525A, enzymatically dephosphorylated (natural protein)
chain: not shown
modifications: dephosphorylated with CIP (no tyrosine phosphorylation on the anti-phosphotyrosine blot)
Consider B5, for which the “fold decrease in affinity for F-actin in the presence of saturating Arg” value in experiment [3] is about 3 fold.
